Values quoted from earlier work, collected in paper PMC3966486.

Tests used:
His180 = His180 (UniProt position 208, LRRDSHKIDNY); conditions: unbound (free) monomer, not in the hormone-receptor complex
His27 [1] = target: His27 (UniProt position 55, AVVLSHYIHNL); conditions: unbound (free) monomer, not in the hormone-receptor complex
His30 [2] = target: His30 (UniProt position 58, LSHYIHNLSSE); conditions: unbound (free) monomer, not in the hormone-receptor complex
His30 [3] = target: His30 (UniProt position 58, LSAYIHNLSSE); conditions: unbound (free) monomer, not in the hormone-receptor complex
His27 [4] = target: His27 (UniProt position 55, AVVLSHYIANL); conditions: unbound (free) monomer, not in the hormone-receptor complex
His188 = His188 (UniProt position 212, RCKPDHGYWSA); conditions: unbound (free) monomer, not in the hormone-receptor complex
[5] = target: human prolactin receptor extracellular domain (hPRLr-ECD), wild type (UniProt P16471); conditions: pH
human prolactin receptor extracellular domain (hPRLr-ECD), wild type, sequence (P16471 whole entry, the tested form may be a part): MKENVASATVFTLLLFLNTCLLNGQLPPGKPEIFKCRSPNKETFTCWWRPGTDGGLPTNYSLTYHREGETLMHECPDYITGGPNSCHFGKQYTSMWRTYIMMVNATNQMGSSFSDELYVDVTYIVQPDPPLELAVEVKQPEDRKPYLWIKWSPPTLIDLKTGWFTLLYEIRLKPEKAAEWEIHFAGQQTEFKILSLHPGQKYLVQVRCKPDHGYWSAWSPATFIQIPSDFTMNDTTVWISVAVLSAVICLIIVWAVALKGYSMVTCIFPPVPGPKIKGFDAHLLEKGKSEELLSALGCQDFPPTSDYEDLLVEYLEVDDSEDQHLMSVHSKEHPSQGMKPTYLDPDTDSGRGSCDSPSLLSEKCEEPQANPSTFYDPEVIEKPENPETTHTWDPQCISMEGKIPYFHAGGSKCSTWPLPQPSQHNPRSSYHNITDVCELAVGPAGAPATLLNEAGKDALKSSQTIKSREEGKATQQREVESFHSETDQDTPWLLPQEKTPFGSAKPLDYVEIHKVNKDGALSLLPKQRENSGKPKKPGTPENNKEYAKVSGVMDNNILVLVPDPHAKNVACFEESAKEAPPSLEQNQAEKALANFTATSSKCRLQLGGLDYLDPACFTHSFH

[6] = target: human prolactin receptor extracellular domain (hPRLr-ECD), wild type (UniProt P16471); conditions: pH; remark: listed apart in the source
[7] = target: human prolactin receptor extracellular domain (hPRLr-ECD), wild type (UniProt P16471); conditions: pH; remark: listed apart in the source

Prolactin (hPRL) (Homo sapiens)
pKa (His180): 6.1 | pKa (His27 [1]): 6.7 | pKa (His30 [2]): 6.3

Prolactin (hPRL) H27A (Homo sapiens; H27A)
pKa (His180): 6.2 | pKa (His30 [3]): 6.5

Prolactin (hPRL) H30A (Homo sapiens; H30A)
pKa (His180): 6.3 | pKa (His27 [4]): 6.9

Prolactin (hPRL) H180A (Homo sapiens; H180A)
pKa (His27 [1]): 6.8 | pKa (His30 [2]): 6.7

Prolactin receptor extracellular domain (hPRLr-ECD) (Homo sapiens)
pKa (His188): 7.7

human prolactin H27A H27A
pKa, His30 of hPRL H27A [5]: 6.5 pH units | pKa, His180 of hPRL H27A [5]: 6.2 pH units

human prolactin H30A H30A
pKa, His27 of hPRL H30A [6]: 6.9 pH units | pKa, His180 of hPRL H30A [6]: 6.3 pH units

human prolactin H180A H180A
pKa, His27 of hPRL H180A [7]: 6.8 pH units | pKa, His30 of hPRL H180A [7]: 6.7 pH units
